Assays:
[1] = target: T1, 38A (25-38A) human α-CGRP (Homo sapiens, UniProt P06881); test: Biacore affinity of G1 Fab to CGRP variant on chip; format: binding; conditions: 38A (25-38A) on chip, 37° C.
T1 construct: 25-38A; 24; purchased GenScript Corporation, New Jersey or Global Peptide Services, Colorado
Experimental: Biacore assay for affinity determination. […] All Biacore assays were conducted in HBS-EP running buffer (10 mM HEPES pH 7.4, 150 mM NaCl, 3 mM EDTA, 0.005% v/v polysorbate P20). CGRP surfaces were prepared by diluting the N-biotinylated CGRP to a concentration of less than 0.001 mg/mL into HBS-EP buffer and injecting it across the SA sensor chip using variable contact times. Low capacity surfaces, corresponding to capture levels <50 response units (RU) were used for high-resolution kinetic studies, whereas high capacity surfaces (about 800 RU of captured CGRP) were used for concentration studies, screening, and solution affinity determinations. […] Samples were typically injected for 1 minute at 100 μL/min and dissociation times of at least 10 minutes were allowed. After each binding cycle, surfaces were regenerated with 25 mM NaOH in 25% v/v ethanol, which was tolerated over hundreds of cycles. An entire titration series (typically generated in duplicate) was fit globally to a 1:1 Langmuir binding model using the BIAevaluation program. This returned a unique pair of association and dissociation kinetic rate constants (respectively, kon and koff) for each binding interaction, whose ratio gave the equilibrium dissociation constant (KD=koff/kon).

[2] = tested on: central trigeminovascular neurons (medullary dorsal horn); test: Seizure (picrotoxin)-induced activation of trigeminovascular neurons, single-unit recording; format: in vivo; conditions: rat
Text: Cortical electrodes were used to trace the magnitude, extent and progression of epileptiform seizures.
Single-unit recordings were obtained from neurons in the trigeminal ganglion and dorsal horn as described in previous studies (Burstein et al. (1998) J. Neurophysiol. 79: 964-82; Strassman and Levy (2006) J. Neurophysiol. 95: 1298-306; Strassman et al. (1996) Nature 384: 560-4; Zhang et al. (2010) J. Neurosci. 30: 8807-14; and Zhang et al. (2011) Ann. Neurol. 69: 855-65). Experiments were done in adult Sprague-Dawley rats (250 g to 350 g). Animals were anesthetized with urethane (1.2-1.5 g/kg), artificially ventilated with oxygen, and paralyzed. Body temperature was controlled, and end-tidal CO2 and oxygen saturation was monitored. For ganglion recordings, four separate craniotomies were made: over the contralateral cortex, to advance the microelectrode; over the ipsilateral parietal cortex, and the ipsilateral occipital cortex, for application of the picrotoxin and recording of electrocorticogram activity; and over the ipsilateral transverse sinus, for electrical and mechanical stimulation of dural afferents, and lidocaine application. For dorsal horn recording, the same craniotomies were made over the ipsilateral cortex and the ipsilateral transverse sinus, but no contralateral craniotomy was made. Instead, a laminectomy was made to expose the upper cervical spinal cord (C1-2) for microelectrode recording. In both the trigeminal ganglion and the dorsal horn recording experiments, the search stimulus for finding dura-sensitive neurons is single-shock electrical stimulation applied to the dura covering the transverse sinus.
Seizure was induced by application of picrotoxin to the surface of the cerebral cortex (10 μl, applied on a small piece of gelfoam, at a concentration of either 5 mM or 100 mM, for focal or generalized seizure, respectively). For verification of seizure induction, cortical activity was recorded with a glass micropipette (0.9% saline, ˜1 megohm, 7 μm tip) placed just below the surface of the cerebral cortex, at the parietal and the occipital site. […]

[3] = tested on: first-order trigeminovascular neurons (A-delta and C-type meningeal nociceptors); test: Single-unit recording of first-order neurons in the trigeminal ganglion evoked by CSD; format: in vivo, rat; conditions: male rats
Experimental: CSD was induced by pinprick 4 hours after drug/isotype infusion.

B1: G1: humanized monoclonal anti-CGRP antagonist antibody; heavy chain SEQ ID NO:11, light chain SEQ ID NO:12 (antibody)
heavy: EVQLVESGGGLVQPGGSLRLSCAASGFTFSNYWISWVRQAPGKGLEWVAEIRSESDASATHYAEAVKGRFTISRDNAKNSLYLQMNSLRAEDTAVYYCLAYFDYGLAIQNYWGQGTLVTVSSASTKGPSVFPLAPCSRSTSESTAALGCLVKDYFPEPVTVSWNSGALTSGVHTFPAVLQSSGLYSLSSVVTVPSSNFGTQTYTCNVDHKPSNTKVDKTVERKCCVECPPCPAPPVAGPSVFLFPPKPKDTLMISRTPEVTCVVVDVSHEDPEVQFNWYVDGVEVHNAKTKPREEQFNSTFRVVSVLTVVHQDWLNGKEYKCKVSNKGLPSSIEKTISKTKGQPREPQVYTLPPSREEMTKNQVSLTCLVKGFYPSDIAVEWESNGQPENNYKTTPPMLDSDGSFFLYSKLTVDKSRWQQGNVFSCSVMHEALHNHYTQKSLSLSPGK
light: EIVLTQSPATLSLSPGERATLSCKASKRVTTYVSWYQQKPGQAPRLLIYGASNRYLGIPARFSGSGSGTDFTLTISSLEPEDFAVYYCSQSYNYPYTFGQGTKLEIKRTVAAPSVFIFPPSDEQLKSGTASVVCLLNNFYPREAKVQWKVDNALQSGNSQESVTEQDSKDSTYSLSSTLTLSKADYEKHKVYACEVTHQGLSSPVTKSFNRGEC
KD (nM) [1]: No binding detected
neurons activated by the seizure (number/total) ([2]; 30 mg/kg i.v. four hours before induction of seizure, medullary dorsal horn, untreated 28/30): 2/13
neurons activated by the seizure (percent) ([2]; 30 mg/kg i.v. four hours before induction of seizure, medullary dorsal horn, untreated 93%): 15%
activation of central trigeminovascular neuron by seizure (FIG. 9) ([2]; 30 mg/kg intravenously four hours before induction of seizure): prevented the activation of a central trigeminovascular neuron but not the occurrence of a seizure
activation of meningeal nociceptors by CSD (FIGS. 23A and 23B) [3]: prevents the activation of most a-delta and some C-type meningeal nociceptors
C-fibers activated by CSD ([3]; 30 mg/kg IV 4 hours before CSD): 23%
a-delta fibers activated by CSD ([3]; 30 mg/kg IV 4 hours before CSD): 14%
neurons tested that were activated by CSD ([3]; 30 mg/kg IV 4 hours before CSD, all first-order neurons): 20%

From patent publication US20190071490A1, “Preventing Post-Ictal Headaches” (Beth Israel Deaconess Medical Center, Inc., priority 2017, published 2019)
